Experimental data as given in paper PMC4974476, “Structural basis for LIN54 recognition of CHR elements in cell cycle-regulated promoters”.

Columns and labels:
LIN54 DBD [1] = target: T1, LIN54 DBD (Homo sapiens, UniProt Q6MZP7 515-646); assay: fluorescence polarization; ITC (25 C) and FP: 20 mM Tris, 150 mM NaCl, 0.1% Tween 20, pH 8.0; NMR: 35 mM MES, 75 mM NaCl, 5% D2O, pH 6.0, 25 C; conditions: protein: recombinant, tags: N-terminal GST with TEV site, cleaved, blunt
LIN54 DBD-C [2] = target: T2, LIN54 DBD-C (Homo sapiens, UniProt Q6MZP7 589-646); assay: as above; conditions: protein: recombinant; tags: N-terminal GST with TEV site, cleaved; label: 3' TAMRA on strand 1; blunt
T2 sequence (Q6MZP7 589-646): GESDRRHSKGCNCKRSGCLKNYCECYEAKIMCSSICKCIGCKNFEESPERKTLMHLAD

LIN54 DBD-N = LIN54 DBD-N (Homo sapiens, UniProt Q6MZP7 515-574); assay: as above; conditions: protein: recombinant; tags: N-terminal GST with TEV site, cleaved; label: 3' TAMRA on strand 1; blunt
Sequence of LIN54 DBD-N (Q6MZP7 515-574): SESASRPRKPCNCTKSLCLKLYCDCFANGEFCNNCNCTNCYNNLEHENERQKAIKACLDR

LIN54 DBD Y610F = LIN54 DBD Y610F (Homo sapiens, UniProt Q6MZP7 515-646, Y610F); assay: ITC; ITC (25 C) and FP: 20 mM Tris, 150 mM NaCl, 0.1% Tween 20, pH 8.0; NMR: 35 mM MES, 75 mM NaCl, 5% D2O, pH 6.0, 25 C; conditions: protein: recombinant; tags: N-terminal GST with TEV site, cleaved; blunt
Sequence of LIN54 DBD Y610F (Q6MZP7 515-646 Y610F): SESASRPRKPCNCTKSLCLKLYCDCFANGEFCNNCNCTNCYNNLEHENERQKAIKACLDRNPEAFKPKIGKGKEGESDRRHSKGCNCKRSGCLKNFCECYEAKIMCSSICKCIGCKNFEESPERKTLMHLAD

LIN54 DBD Y610R = LIN54 DBD Y610R (Homo sapiens, UniProt Q6MZP7 515-646, Y610R); assay: as above; conditions: protein: recombinant; tags: N-terminal GST with TEV site, cleaved; blunt
Sequence of LIN54 DBD Y610R (Q6MZP7 515-646 Y610R): as the sequence (Q6MZP7 515-646 Y610F) above, with F96R counted along it

LIN54 DBD Y536A = LIN54 DBD Y536A (Homo sapiens, UniProt Q6MZP7 515-646, Y536A); assay: as above; conditions: protein: recombinant; tags: N-terminal GST with TEV site, cleaved; blunt
Sequence of LIN54 DBD Y536A (Q6MZP7 515-646 Y536A): as the sequence (Q6MZP7 515-646 Y610F) above, with Y22A, F96Y counted along it

LIN54 DBD Y536R = LIN54 DBD Y536R (Homo sapiens, UniProt Q6MZP7 515-646, Y536R); assay: as above; conditions: protein: recombinant; tags: N-terminal GST with TEV site, cleaved; blunt
Sequence of LIN54 DBD Y536R (Q6MZP7 515-646 Y536R): as the sequence (Q6MZP7 515-646 Y610F) above, with Y22R, F96Y counted along it

LIN54 DBD Y610A = LIN54 DBD Y610A (Homo sapiens, UniProt Q6MZP7 515-646, Y610A); assay: as above; conditions: protein: recombinant; tags: N-terminal GST with TEV site, cleaved; blunt
Sequence of LIN54 DBD Y610A (Q6MZP7 515-646 Y610A): as the sequence (Q6MZP7 515-646 Y610F) above, with F96A counted along it

LIN54 DBD [3] = target: T1, LIN54 DBD; assay: as above; conditions: protein: recombinant; tags: N-terminal GST with TEV site, cleaved; blunt
LIN54 DBD Y536F = LIN54 DBD Y536F (Homo sapiens, UniProt Q6MZP7 515-646, Y536F); assay: as above; conditions: protein: recombinant; tags: N-terminal GST with TEV site, cleaved; blunt
Sequence of LIN54 DBD Y536F (Q6MZP7 515-646 Y536F): as the sequence (Q6MZP7 515-646 Y610F) above, with Y22F, F96Y counted along it

LIN54 DBD-C [4] = target: T2, LIN54 DBD-C; assay: NMR HSQC titration; 35 mM MES, 75 mM NaCl, pH 6.0, 25 C; ITC (25 C) and FP: 20 mM Tris, 150 mM NaCl, 0.1% Tween 20, pH 8.0; NMR: 35 mM MES, 75 mM NaCl, 5% D2O, pH 6.0, 25 C; conditions: protein: recombinant; tags: N-terminal GST with TEV site, cleaved; blunt

T1 sequence (Q6MZP7 515-646): as the sequence (Q6MZP7 515-646 Y610F) above, with F96Y counted along it

B1: CHR13 (FP) (dsDNA)
DNA 1: GAGTTTGAAACTG
DNA 2: CAGTTTCAAACTC
Kd (LIN54 DBD [1]): 5 ± 2 µM

B2: CHR27 (dsDNA)
DNA 1: CCTTTAGCGCGGTGAGTTTGAAACTGTAA
DNA 2: TTACAGTTTCAAACTCACCGCGCTAAAGG
binding result (LIN54 DBD-C [2]): no binding
binding result (LIN54 DBD-N): no binding
Kd (LIN54 DBD [1]; label: 3' TAMRA on strand 1): 0.43 ± 0.08 µM

B3: CHR13 (dsDNA)
DNA 1: GAGTTTGAAACTG
DNA 2: CAGTTTCAAACTC
binding result (LIN54 DBD Y610F): no binding
binding result (LIN54 DBD Y610R): no binding
binding result (LIN54 DBD Y536A): no binding
binding result (LIN54 DBD Y536R): no binding
binding result (LIN54 DBD Y610A): no binding
Kd (LIN54 DBD [3]): 2.8 ± 0.1 µM
binding result (LIN54 DBD Y536F): no binding
Kd (LIN54 DBD-C [4]): 500 ± 100 µM
